Assay results taken from paper PMC3099546.

Legend:
[1] = tested on: CCCCC/C=C\C\C=C/C=C/C=C/[C@@H](SC[C@H](NC(=O)CC[C@H](N)C(=O)O)C(=O)NCC(=O)O)[C@@H](O)CCCC(=O)O; assay: purified protein; conditions: substrate binding site
[2] = tested on: CSC[C@H](NC(=O)CC[C@H](N)C(=O)O)C(=O)NCC(=O)O; assay: glutamate release assay, Km of hydrolysis; format: biochemical, Homo sapiens
[3] = tested on: N[C@@H](CCC(=O)N[C@@H](CSCc1ccc([N+](=O)[O-])cc1)C(=O)NCC(=O)O)C(=O)O; assay: glutamate release assay, Km of hydrolysis; format: biochemical, Homo sapiens

gamma-glutamyl transpeptidase (GGT1) (Homo sapiens)
Km [1]: 10.8 ± 0.1 µM
kcat [1]: 88.3 s⁻¹
kcat/Km [1]: 8.17e+06 M⁻¹ s⁻¹
Km [2]: 9.90 ± 0.07 µM
kcat [2]: 95 ± 3.33 s⁻¹
kcat/Km [2]: 9.5e+06 ± 333000 M⁻¹ s⁻¹
Km [3]: 13.10 ± 0.05 µM
kcat [3]: 103 ± 6.67 s⁻¹
kcat/Km [3]: 7.83e+06 ± 500000 M⁻¹ s⁻¹
